Measured values from paper PMC10628234.

Experiments:
[1] = target: T1, CbFic2 (Coxiella burnetii, UniProt Q83DB6 1-378); assay: fluorescence anisotropy; Hill 1.354; settings: protein: recombinant; tags: N-terminal G-H-M remnant after TEV cleavage; label: 5'-FITC on one strand
[2] = target: TS-CbFic2 (Coxiella burnetii, UniProt Q83DB6 1-378); assay: fluorescence anisotropy; Hill 1.082; settings: protein: recombinant; tags: N-terminal Twin-Strep + EK site (G-H-M-TS-G-A-EK-H-M); label: 5'-FITC on one strand
[3] = target: T1, CbFic2; assay: circular dichroism; settings: protein: recombinant; tags: N-terminal G-H-M remnant after TEV cleavage; blunt, self-complementary, 2 copies
[4] = target: T1, CbFic2; assay: fluorescence anisotropy; Hill 0.988; settings: protein: recombinant; tags: N-terminal G-H-M remnant after TEV cleavage; label: 5'-FITC on one strand
[5] = target: T1, CbFic2; assay: fluorescence anisotropy; Hill 0.772; settings: protein: recombinant; tags: N-terminal G-H-M remnant after TEV cleavage; label: 5'-FITC on one strand

B1: 5'-FITC 20 bp dsDNA (40% GC) (dsDNA)
DNA 1: AGTTTAGTGCGCTAATCTGA
DNA 2: TCAGATTAGCGCACTAAACT
Kd [1]: 220 nM | Kd [2]: 116 nM

B2: d(CG)10 duplex, 100% GC (dsDNA)
DNA 1: CGCGCGCGCGCGCGCGCGCG
DNA 2: CGCGCGCGCGCGCGCGCGCG
binding result [3]: binds

B3: 5'-FITC 60 bp dsDNA (dsDNA)
DNA 1: TCACTCAAGAAGCAGACACAGTAAGACACGGTTTAGCTGATTGTTTATCGATTAGGTCAA
DNA 2: TTGACCTAATCGATAAACAATCAGCTAAACCGTGTCTTACTGTGTCTGCTTCTTGAGTGA
Kd [4]: 36.5 nM

B4: 5'-FITC 40 bp dsDNA (dsDNA)
DNA 1: TTGATTACCGTCAGTTGGAGCCCATATTATACATGAAGAC
DNA 2: GTCTTCATGTATAATATGGGCTCCAACTGACGGTAATCAA
Kd [5]: 108 nM
